Test results reported in patent US20170114412A1.

Biological target: Robo2, human, full-length, non-tagged (human) (UniProt Q9HCK4)
Assay: cell-based or functional assay

Sequence of Robo2, human, full-length, non-tagged (human) (Q9HCK4 22-1378 limits assumed, form in doubt): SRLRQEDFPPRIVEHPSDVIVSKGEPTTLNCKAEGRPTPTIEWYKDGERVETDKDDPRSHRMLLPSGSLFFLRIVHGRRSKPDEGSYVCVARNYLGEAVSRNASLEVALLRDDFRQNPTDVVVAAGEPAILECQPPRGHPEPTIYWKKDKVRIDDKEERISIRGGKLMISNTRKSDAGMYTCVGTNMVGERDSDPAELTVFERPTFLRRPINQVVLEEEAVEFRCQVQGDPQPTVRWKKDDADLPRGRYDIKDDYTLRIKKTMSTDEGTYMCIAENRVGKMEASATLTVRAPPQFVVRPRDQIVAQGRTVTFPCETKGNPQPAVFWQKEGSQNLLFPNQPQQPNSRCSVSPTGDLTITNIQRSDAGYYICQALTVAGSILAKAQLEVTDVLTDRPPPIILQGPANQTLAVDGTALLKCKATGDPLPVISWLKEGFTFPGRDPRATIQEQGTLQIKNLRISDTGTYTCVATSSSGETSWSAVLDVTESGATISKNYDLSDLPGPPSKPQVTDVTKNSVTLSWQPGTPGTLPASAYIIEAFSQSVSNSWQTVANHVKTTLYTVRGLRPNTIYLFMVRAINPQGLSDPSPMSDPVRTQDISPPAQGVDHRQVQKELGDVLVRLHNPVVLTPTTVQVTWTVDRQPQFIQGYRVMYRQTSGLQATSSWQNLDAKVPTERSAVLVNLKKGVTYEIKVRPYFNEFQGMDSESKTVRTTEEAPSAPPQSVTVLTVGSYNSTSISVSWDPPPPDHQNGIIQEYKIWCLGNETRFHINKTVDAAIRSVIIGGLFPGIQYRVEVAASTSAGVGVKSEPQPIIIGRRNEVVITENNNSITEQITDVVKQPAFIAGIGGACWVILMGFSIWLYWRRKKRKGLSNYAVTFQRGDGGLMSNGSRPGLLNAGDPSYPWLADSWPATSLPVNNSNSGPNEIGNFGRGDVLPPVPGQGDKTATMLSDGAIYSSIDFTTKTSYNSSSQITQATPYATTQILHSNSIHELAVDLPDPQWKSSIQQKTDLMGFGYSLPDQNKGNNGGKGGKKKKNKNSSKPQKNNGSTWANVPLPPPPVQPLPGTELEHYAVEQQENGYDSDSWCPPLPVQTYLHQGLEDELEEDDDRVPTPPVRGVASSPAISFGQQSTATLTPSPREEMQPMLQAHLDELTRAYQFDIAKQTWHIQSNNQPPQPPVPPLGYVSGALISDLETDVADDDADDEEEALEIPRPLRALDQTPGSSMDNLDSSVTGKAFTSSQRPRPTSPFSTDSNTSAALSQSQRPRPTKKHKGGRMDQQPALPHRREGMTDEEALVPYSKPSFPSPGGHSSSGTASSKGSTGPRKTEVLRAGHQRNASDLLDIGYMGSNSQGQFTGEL

Slit2 (myc-tagged), in conditioned medium of stably transfected cells (ligand)
percentage of CD16/7-NCD clustered HEK cells with F-actin tails (control medium without Slit2: ~80%): 40%
